Experiments:
Assay in all cases: holdup assay
Set-up in all cases: key: below the threshold = too weak to quantify, mostly under pKd 3.1 to 4
[1] = target: GOPC, Q9HD26
[2] = target: T1, DLG3_2, Q92796
T1 sequence (Q92796 221-321, limits assumed, looked up): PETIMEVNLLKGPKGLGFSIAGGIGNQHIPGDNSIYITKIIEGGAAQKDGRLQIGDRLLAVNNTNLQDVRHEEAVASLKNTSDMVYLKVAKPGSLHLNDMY

[3] = target: CASK, O14936
[4] = target: T2, RHPN1, Q8TCX5
T2 sequence (Q8TCX5 508-602, limits assumed, looked up): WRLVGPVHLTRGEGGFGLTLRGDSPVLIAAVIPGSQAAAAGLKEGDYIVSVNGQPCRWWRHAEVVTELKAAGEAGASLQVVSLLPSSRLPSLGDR

[5] = target: T3, NHERF3_1, Q5T2W1
T3 sequence (Q5T2W1 4-100, limits assumed, looked up): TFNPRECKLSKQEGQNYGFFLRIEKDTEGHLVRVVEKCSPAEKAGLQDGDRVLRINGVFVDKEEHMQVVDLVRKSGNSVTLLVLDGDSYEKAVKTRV

[6] = target: LIMK2, P53671
[7] = target: NHERF4_1, Q86UT5-2
[8] = target: GRID2IP_1, A4D2P6
[9] = target: T4, APBA2_1, Q99767
T4 sequence (Q99767 563-664, limits assumed, looked up): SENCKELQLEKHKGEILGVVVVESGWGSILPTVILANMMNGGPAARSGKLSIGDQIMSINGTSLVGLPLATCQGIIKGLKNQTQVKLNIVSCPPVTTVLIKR

[10] = target: T5, SYNJ2BP, P57105
T5 sequence (P57105 8-110, limits assumed, looked up): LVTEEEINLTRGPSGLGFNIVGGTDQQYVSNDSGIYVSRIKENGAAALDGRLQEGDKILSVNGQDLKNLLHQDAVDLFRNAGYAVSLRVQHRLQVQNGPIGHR

[11] = target: PDZRN4_1, Q6ZMN7
[12] = target: IL16_4, Q14005
[13] = target: MAST2, Q6P0Q8
[14] = target: SCRIB_1, Q14160
[15] = target: T6, MPDZ_10, O75970
T6 sequence (O75970 1624-1722, limits assumed, looked up): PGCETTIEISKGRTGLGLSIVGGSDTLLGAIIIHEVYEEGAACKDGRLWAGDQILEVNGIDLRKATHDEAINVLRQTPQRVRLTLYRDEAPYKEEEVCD

[16] = target: T7, DLG3_1, Q92796
T7 sequence (Q92796 125-227, limits assumed, looked up): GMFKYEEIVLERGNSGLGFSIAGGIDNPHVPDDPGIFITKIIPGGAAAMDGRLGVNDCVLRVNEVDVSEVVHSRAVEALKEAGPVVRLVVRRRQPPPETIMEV

[17] = target: MAGI1_2, Q96QZ7
[18] = target: ARHGEF12, Q9NZN5-2
[19] = target: T8, SNTG1, Q9NSN8
T8 sequence (Q9NSN8 52-150, limits assumed, looked up): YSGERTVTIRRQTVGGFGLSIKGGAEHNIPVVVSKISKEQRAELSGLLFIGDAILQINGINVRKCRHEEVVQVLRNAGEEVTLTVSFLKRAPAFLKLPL

[20] = target: T9, SNTA1, Q13424
T9 sequence (Q13424 82-180, limits assumed, looked up): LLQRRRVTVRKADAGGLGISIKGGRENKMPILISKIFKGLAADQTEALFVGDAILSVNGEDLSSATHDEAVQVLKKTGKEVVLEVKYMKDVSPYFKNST

[21] = target: T10, SHANK1, Q9Y566
T10 sequence (Q9Y566 658-767, limits assumed, looked up): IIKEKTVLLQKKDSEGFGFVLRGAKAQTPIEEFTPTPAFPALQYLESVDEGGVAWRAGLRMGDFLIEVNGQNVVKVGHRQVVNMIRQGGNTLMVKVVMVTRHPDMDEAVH

[22] = target: GRASP, Q7Z6J2
[23] = target: FRMPD3, Q5JV73
[24] = target: DLG5_1, Q8TDM6
[25] = target: T11, TJP3_3, O95049
T11 sequence (O95049 375-456, limits assumed, looked up): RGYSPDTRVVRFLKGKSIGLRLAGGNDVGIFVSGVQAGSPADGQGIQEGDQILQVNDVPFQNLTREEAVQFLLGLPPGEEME

[26] = target: T12, TX1BP3, O14907
T12 sequence (O14907 10-122, limits assumed, looked up): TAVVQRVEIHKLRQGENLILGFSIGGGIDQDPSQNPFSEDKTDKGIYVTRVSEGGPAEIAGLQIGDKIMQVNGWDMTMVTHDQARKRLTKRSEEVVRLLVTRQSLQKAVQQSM

[27] = plain residues with an end cap or a label only (N-terminal biotin on a linker: ado-ado)
[28] = modified: phospho on T at position -1 from the C-terminal residue
[29] = modified: phospho on T at position -2 from the C-terminal residue

MAST2, Q6P0Q8, sequence (Q6P0Q8 1099-1202): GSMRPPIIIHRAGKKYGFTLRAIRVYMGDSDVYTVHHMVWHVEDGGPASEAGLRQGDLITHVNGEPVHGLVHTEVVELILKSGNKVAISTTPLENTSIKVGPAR
ARHGEF12, Q9NZN5-2, sequence (Q9NZN5 other isoform, or with tags, fused parts or gaps): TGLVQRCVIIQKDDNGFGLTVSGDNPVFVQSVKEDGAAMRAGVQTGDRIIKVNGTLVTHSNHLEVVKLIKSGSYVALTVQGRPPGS
NHERF4_1, Q86UT5-2, sequence (Q86UT5 other isoform, or with tags, fused parts or gaps): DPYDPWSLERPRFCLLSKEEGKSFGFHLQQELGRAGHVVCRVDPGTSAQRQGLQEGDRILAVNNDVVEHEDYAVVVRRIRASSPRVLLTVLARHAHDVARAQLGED
GRID2IP_1, A4D2P6, sequence (A4D2P6 1-87): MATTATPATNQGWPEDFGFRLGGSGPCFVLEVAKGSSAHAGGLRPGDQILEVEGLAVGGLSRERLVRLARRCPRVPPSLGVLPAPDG
FRMPD3, Q5JV73, sequence (Q5JV73 12-100): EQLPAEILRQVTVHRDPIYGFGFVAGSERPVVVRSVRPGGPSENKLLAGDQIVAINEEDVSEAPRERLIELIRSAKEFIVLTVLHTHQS
DLG5_1, Q8TDM6, sequence (Q8TDM6 617-713): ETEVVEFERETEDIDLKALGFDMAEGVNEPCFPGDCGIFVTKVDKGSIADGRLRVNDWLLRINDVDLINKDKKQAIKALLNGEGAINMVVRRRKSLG
LIMK2, P53671, sequence (P53671 143-248): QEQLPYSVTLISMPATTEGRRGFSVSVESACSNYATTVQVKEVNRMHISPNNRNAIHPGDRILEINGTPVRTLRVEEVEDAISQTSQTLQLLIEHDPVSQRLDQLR
PDZRN4_1, Q6ZMN7, sequence (Q6ZMN7 213-318): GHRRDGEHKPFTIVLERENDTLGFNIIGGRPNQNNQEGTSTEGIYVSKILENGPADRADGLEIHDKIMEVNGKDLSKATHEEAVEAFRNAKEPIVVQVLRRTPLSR
CASK, O14936, sequence (O14936 487-570): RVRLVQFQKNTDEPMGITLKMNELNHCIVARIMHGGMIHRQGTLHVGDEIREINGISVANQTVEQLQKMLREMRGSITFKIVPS
IL16_4, Q14005, sequence (Q14005 1229-1329): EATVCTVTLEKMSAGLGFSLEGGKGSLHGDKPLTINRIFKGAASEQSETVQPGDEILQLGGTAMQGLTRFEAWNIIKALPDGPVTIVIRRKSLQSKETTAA
GRASP, Q7Z6J2, sequence (Q7Z6J2 96-193): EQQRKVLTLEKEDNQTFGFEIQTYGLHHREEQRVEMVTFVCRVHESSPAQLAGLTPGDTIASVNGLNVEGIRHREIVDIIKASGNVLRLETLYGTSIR
SCRIB_1, Q14160, sequence (Q14160 718-814): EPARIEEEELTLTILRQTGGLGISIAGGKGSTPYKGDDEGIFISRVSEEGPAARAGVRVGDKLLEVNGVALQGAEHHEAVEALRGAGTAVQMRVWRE
MAGI1_2, Q96QZ7, sequence (Q96QZ7 456-580): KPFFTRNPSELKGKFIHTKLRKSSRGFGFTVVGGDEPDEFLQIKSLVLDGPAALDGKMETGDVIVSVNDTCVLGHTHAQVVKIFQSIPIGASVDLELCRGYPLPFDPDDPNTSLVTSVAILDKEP

B1: SH2D3C, Q8N5H7 (peptide)
chain: LEPAVRSSEL
pKd [1, 27]: below the threshold
pKd [2, 27]: below the threshold
pKd [3, 27]: below the threshold
pKd [4, 27]: 3.66
pKd [5, 27]: 5.33
pKd [6, 27]: below the threshold
pKd [7, 27]: 4.18
pKd [8, 27]: below the threshold
pKd [9, 27]: below the threshold
pKd [10, 27]: 4.44
pKd [11, 27]: 3.9
pKd [12, 27]: below the threshold
pKd [13, 27]: 5.51
pKd [14, 27]: 3.78
pKd [15, 27]: below the threshold
pKd [16, 27]: below the threshold
pKd [17, 27]: below the threshold
pKd [18, 27]: 4.91
pKd [19, 27]: below the threshold
pKd [20, 27]: 3.95
pKd [21, 27]: 3.86
pKd [22, 27]: 4.43
pKd [23, 27]: below the threshold
pKd [24, 27]: below the threshold
pKd [25, 27]: below the threshold
pKd [26, 27]: 3.86

B2: RPS6KA1_-1P, Q15418 (peptide)
chain: RRVRKLPSTTL
pKd [1, 28]: 4.66
pKd [2, 28]: 3.89
pKd [3, 28]: below the threshold
pKd [4, 28]: 3.62
pKd [5, 28]: 4.2
pKd [6, 28]: below the threshold
pKd [7, 28]: 4.23
pKd [8, 28]: below the threshold
pKd [9, 28]: below the threshold
pKd [10, 28]: 4.48
pKd [11, 28]: 4.31
pKd [12, 28]: below the threshold
pKd [13, 28]: 5.17
pKd [14, 28]: 4.02
pKd [15, 28]: below the threshold
pKd [16, 28]: 3.57
pKd [17, 28]: 4.32
pKd [18, 28]: 4.87
pKd [19, 28]: 3.73
pKd [20, 28]: 3.85
pKd [21, 28]: 4.06
pKd [22, 28]: 3.8
pKd [23, 28]: below the threshold
pKd [24, 28]: below the threshold
pKd [25, 28]: below the threshold
pKd [26, 28]: 3.87

B3: RPS6KA1_-2P, Q15418 (peptide)
chain: RRVRKLPSTTL
pKd [1, 29]: below the threshold
pKd [2, 29]: below the threshold
pKd [3, 29]: below the threshold
pKd [4, 29]: below the threshold
pKd [5, 29]: below the threshold
pKd [6, 29]: below the threshold
pKd [7, 29]: 3.69
pKd [8, 29]: below the threshold
pKd [9, 29]: below the threshold
pKd [10, 29]: below the threshold
pKd [11, 29]: below the threshold
pKd [12, 29]: below the threshold
pKd [13, 29]: below the threshold
pKd [14, 29]: below the threshold
pKd [15, 29]: below the threshold
pKd [16, 29]: below the threshold
pKd [17, 29]: below the threshold
pKd [18, 29]: below the threshold
pKd [19, 29]: below the threshold
pKd [20, 29]: below the threshold
pKd [21, 29]: below the threshold
pKd [22, 29]: below the threshold
pKd [23, 29]: below the threshold
pKd [24, 29]: below the threshold
pKd [25, 29]: below the threshold
pKd [26, 29]: below the threshold

B4: AKAP10, O43572 (peptide)
chain: DQPLEKSTKL
pKd [1, 27]: 3.86
pKd [2, 27]: 4.14
pKd [3, 27]: below the threshold
pKd [4, 27]: 3.96
pKd [5, 27]: 6.02
pKd [6, 27]: below the threshold
pKd [7, 27]: 4.28
pKd [8, 27]: below the threshold
pKd [9, 27]: below the threshold
pKd [10, 27]: below the threshold
pKd [11, 27]: 3.92
pKd [12, 27]: below the threshold
pKd [13, 27]: 5.41
pKd [14, 27]: 3.72
pKd [15, 27]: below the threshold
pKd [16, 27]: below the threshold
pKd [17, 27]: below the threshold
pKd [18, 27]: 4.97
pKd [19, 27]: below the threshold
pKd [20, 27]: 3.71
pKd [21, 27]: 5.33
pKd [22, 27]: 4.06
pKd [23, 27]: below the threshold
pKd [24, 27]: below the threshold
pKd [25, 27]: below the threshold
pKd [26, 27]: below the threshold

B5: AKIP1, Q9NQ31 (peptide)
chain: GQSVDLVFPV
pKd [1, 27]: below the threshold
pKd [2, 27]: below the threshold
pKd [3, 27]: below the threshold
pKd [4, 27]: below the threshold
pKd [5, 27]: below the threshold
pKd [6, 27]: below the threshold
pKd [7, 27]: below the threshold
pKd [8, 27]: below the threshold
pKd [9, 27]: 3.59
pKd [10, 27]: below the threshold
pKd [11, 27]: below the threshold
pKd [12, 27]: below the threshold
pKd [13, 27]: 4.15
pKd [14, 27]: below the threshold
pKd [15, 27]: below the threshold
pKd [16, 27]: below the threshold
pKd [17, 27]: below the threshold
pKd [18, 27]: below the threshold
pKd [19, 27]: below the threshold
pKd [20, 27]: below the threshold
pKd [21, 27]: below the threshold
pKd [22, 27]: 3.48
pKd [23, 27]: 3.68
pKd [24, 27]: 3.48
pKd [25, 27]: below the threshold
pKd [26, 27]: below the threshold
